# According to publication PMC2118782:
# Read-outs that look alike come from different tables or passages of the source.
# How the values were obtained:
# [1] = biological target: Ld class I major histocompatibility complex molecule (30-5-7+ Ld) (mouse); assay: co-IP
# [2] = biological target: Ld class I major histocompatibility complex molecule (30-5-7+ Ld) (mouse); assay: co-IP; remark: listed apart in the source
# Ld class I major histocompatibility complex molecule (30-5-7+ Ld) (mouse), sequence (P01897 25-362, one chain of several): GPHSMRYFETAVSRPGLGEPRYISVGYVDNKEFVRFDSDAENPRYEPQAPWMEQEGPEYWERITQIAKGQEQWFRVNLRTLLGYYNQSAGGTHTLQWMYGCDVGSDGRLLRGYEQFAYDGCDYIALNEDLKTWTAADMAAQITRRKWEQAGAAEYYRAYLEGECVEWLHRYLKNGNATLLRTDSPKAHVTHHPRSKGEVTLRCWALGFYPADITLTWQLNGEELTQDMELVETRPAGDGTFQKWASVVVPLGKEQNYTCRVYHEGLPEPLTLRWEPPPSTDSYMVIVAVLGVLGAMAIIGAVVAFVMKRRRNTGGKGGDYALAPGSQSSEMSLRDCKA
substance,measurement,setting,value
MCMV pp89 168-176 peptide,percent precipitable counts,[1],98%
same,pellet cpm (bound peptide),[2],7630 cpm
same,percent precipitable counts,[2],80%
